EC50 data for 36 molecules are collected here from patent US20260152552A1 (CURON BIOPHARMACEUTICAL SHANGHAI, published 2026).

For orientation: EC50 means the concentration at which the effect is half-maximal. Low values mean a more potent agent, high ones a less potent agent.

Residue numbers refer to the chain shown, from its start.

Sequences and labels used below:
B1: humanized anti-L1CAM antibody hz26A12C1H3L2 (antibody, V domains shown)
VH: QVQLVQSGAEVKKPGSSVKVSCKASGYTFTNYWIQWVRQAPGQGLEWIGYINPSTYYSDYAQKFQGRVTLTADESTSTAYMELSSLRSEDTAVYYCARRQFGLPLFDYWGQGTTVTVSS
VL: DIQMTQSPSSLSASVGDRVTITCRASQDVGTAVAWYQQKPGKVPKLLIYWASTLHSGVPSRFSGSGSGTDFTLTISSLQPEDVATYYCQQYSNYPLTFGGGTKVEIK
B2: humanized anti-L1CAM antibody hz26A12C1H3L3 (antibody, V domains shown)
VH: B1 VH
VL: B1 VL with Y87F
B3: humanized anti-L1CAM antibody hz26A12C1H2L2 (antibody, V domains shown)
VH: B1 VH with I48M, L70I
VL: B1 VL
B4: humanized anti-L1CAM antibody hz26A12C1H4L1 (antibody, V domains shown)
VH: B1 VH with A61N, E74K
VL: B1 VL with V33L, H55Q
B5: humanized anti-L1CAM antibody hz26A12C1H4L2 (antibody, V domains shown)
VH: B1 VH with A61N, E74K
VL: B1 VL
B6: humanized anti-L1CAM antibody hz26A12C1H4L3 (antibody, V domains shown)
VH: B1 VH with A61N, E74K
VL: B1 VL with Y87F
B7: humanized anti-L1CAM antibody hz26A12C1H2L1 (antibody, V domains shown)
VH: B1 VH with I48M, L70I
VL: B1 VL with V33L, H55Q
B8: humanized anti-L1CAM antibody hz26A12C1H3L1 (antibody, V domains shown)
VH: B1 VH
VL: B1 VL with V33L, H55Q
B9: humanized anti-L1CAM antibody hz26A12C1H2L3 (antibody, V domains shown)
VH: B1 VH with I48M, L70I
VL: B1 VL with Y87F
B10: humanized anti-L1CAM antibody hz49E10H1H7L6 (antibody, V domains shown)
VH: QVQLQESGPGLVKPSQTLSLTCTVSGGSISSDYAWNWIRQPPGKGLEWMGYITYSGTTTYNPSLKSRITISRDTSKNQFSLKLSSVTAADTAVYYCTLDHYGNYAYFDYWGQGTTVTVSS
VL: DIQMTQSPSSLSASVGDRVTITCRASSSVSFMHWYQQKPGKAPKPWIYASSNLVSGVPSRFSGSGSGTDFTLTISSLQPEDFATYYCQQWSSNPSTFGGGTKVEIK
B11: humanized anti-L1CAM antibody hz103E9B3H6L5 (antibody, V domains shown)
VH: EVQLVQSGAEVKKPGASVKVSCKASGYTFTSYTMHWVRQAPGQGLEWMGDINPNYGGTSYNEKFKDRATMTTDTSTSTAYMELRSLRSDDTAVYYCAREGATGTWYFDVWGQGTTVTVSS
VL: B10 VL with R24S, H33F, W46L, A49L, S50T, V54A, S91R, S95P
B12: humanized anti-L1CAM antibody hz103E9B3H9L5 (antibody, V domains shown)
VH: B11 VH with M48I, M70L, T72V, T74K
VL: B10 VL with R24S, H33F, W46L, A49L, S50T, V54A, S91R, S95P
B13: humanized anti-L1CAM antibody hz103E9B3H7L6 (antibody, V domains shown)
VH: B11 VH with M48I, M70L
VL: B10 VL with R24S, H33F, A49L, S50T, V54A, S91R, S95P
B14: humanized anti-L1CAM antibody hz49E10H1H8L7 (antibody, V domains shown)
VH: B10 VH with Q1D, K44N
VL: B10 VL with D1Q, F70Y
B15: humanized anti-L1CAM antibody hz49E10H1H4L6 (antibody, V domains shown)
VH: B10 VH with M49I, I68V, R72V, T97A, L98R
VL: B10 VL
B16: humanized anti-L1CAM antibody hz49E10H1H4L7 (antibody, V domains shown)
VH: B10 VH with M49I, I68V, R72V, T97A, L98R
VL: B10 VL with D1Q, F70Y
B17: humanized anti-L1CAM antibody hz103E9B3H6L6 (antibody, V domains shown)
VH: B11 VH
VL: B10 VL with R24S, H33F, A49L, S50T, V54A, S91R, S95P
B18: humanized anti-L1CAM antibody hz49E10H1H8L5 (antibody, V domains shown)
VH: B10 VH with Q1D, K44N
VL: B10 VL with P45L, W46L
B19: humanized anti-L1CAM antibody hz103E9B3H7L5 (antibody, V domains shown)
VH: B11 VH with M48I, M70L
VL: B10 VL with R24S, H33F, W46L, A49L, S50T, V54A, S91R, S95P
B20: humanized anti-L1CAM antibody hz49E10H1H6L6 (antibody, V domains shown)
VH: B10 VH with Q1D, M49I, I68V
VL: B10 VL
B21: humanized anti-L1CAM antibody hz49E10H1H4L5 (antibody, V domains shown)
VH: B10 VH with M49I, I68V, R72V, T97A, L98R
VL: B10 VL with P45L, W46L
B22: humanized anti-L1CAM antibody hz49E10H1H5L5 (antibody, V domains shown)
VH: B10 VH with Q1D, T97A, L98R
VL: B10 VL with P45L, W46L
B23: humanized anti-L1CAM antibody hz49E10H1H7L5 (antibody, V domains shown)
VH: B10 VH
VL: B10 VL with P45L, W46L
B24: humanized anti-L1CAM antibody hz49E10H1H5L7 (antibody, V domains shown)
VH: B10 VH with Q1D, T97A, L98R
VL: B10 VL with D1Q, F70Y
B25: humanized anti-L1CAM antibody hz49E10H1H8L6 (antibody, V domains shown)
VH: B10 VH with Q1D, K44N
VL: B10 VL
B26: humanized anti-L1CAM antibody hz49E10H1H5L6 (antibody, V domains shown)
VH: B10 VH with Q1D, T97A, L98R
VL: B10 VL
B27: humanized anti-L1CAM antibody hz49E10H1H7L7 (antibody, V domains shown)
VH: B10 VH
VL: B10 VL with D1Q, F70Y
B28: humanized anti-L1CAM antibody hz49E10H1H6L7 (antibody, V domains shown)
VH: B10 VH with Q1D, M49I, I68V
VL: B10 VL with D1Q, F70Y
B29: humanized anti-L1CAM antibody hz49E10H1H6L5 (antibody, V domains shown)
VH: B10 VH with Q1D, M49I, I68V
VL: B10 VL with P45L, W46L
B30: humanized anti-L1CAM antibody hz103E9B3H6L4 (antibody, V domains shown)
VH: B11 VH
VL: B10 VL with R24S, H33F, P45L, W46L, A49L, S50T, V54A, S91R, S95P
B31: humanized anti-L1CAM antibody hz103E9B3H5L4 (antibody, V domains shown)
VH: B11 VH with A68V
VL: B10 VL with R24S, H33F, P45L, W46L, A49L, S50T, V54A, S91R, S95P
B32: humanized anti-L1CAM antibody hz103E9B3H5L6 (antibody, V domains shown)
VH: B11 VH with A68V
VL: B10 VL with R24S, H33F, A49L, S50T, V54A, S91R, S95P
B33: humanized anti-L1CAM antibody hz103E9B3H9L4 (antibody, V domains shown)
VH: B11 VH with M48I, M70L, T72V, T74K
VL: B10 VL with R24S, H33F, P45L, W46L, A49L, S50T, V54A, S91R, S95P
B34: humanized anti-L1CAM antibody hz103E9B3H5L5 (antibody, V domains shown)
VH: B11 VH with A68V
VL: B10 VL with R24S, H33F, W46L, A49L, S50T, V54A, S91R, S95P
B35: humanized anti-L1CAM antibody hz103E9B3H9L6 (antibody, V domains shown)
VH: B11 VH with M48I, M70L, T72V, T74K
VL: B10 VL with R24S, H33F, A49L, S50T, V54A, S91R, S95P
B36: humanized anti-L1CAM antibody hz103E9B3H7L4 (antibody, V domains shown)
VH: B11 VH with M48I, M70L
VL: B10 VL with R24S, H33F, P45L, W46L, A49L, S50T, V54A, S91R, S95P

T1 sequence (P32004 20-1257): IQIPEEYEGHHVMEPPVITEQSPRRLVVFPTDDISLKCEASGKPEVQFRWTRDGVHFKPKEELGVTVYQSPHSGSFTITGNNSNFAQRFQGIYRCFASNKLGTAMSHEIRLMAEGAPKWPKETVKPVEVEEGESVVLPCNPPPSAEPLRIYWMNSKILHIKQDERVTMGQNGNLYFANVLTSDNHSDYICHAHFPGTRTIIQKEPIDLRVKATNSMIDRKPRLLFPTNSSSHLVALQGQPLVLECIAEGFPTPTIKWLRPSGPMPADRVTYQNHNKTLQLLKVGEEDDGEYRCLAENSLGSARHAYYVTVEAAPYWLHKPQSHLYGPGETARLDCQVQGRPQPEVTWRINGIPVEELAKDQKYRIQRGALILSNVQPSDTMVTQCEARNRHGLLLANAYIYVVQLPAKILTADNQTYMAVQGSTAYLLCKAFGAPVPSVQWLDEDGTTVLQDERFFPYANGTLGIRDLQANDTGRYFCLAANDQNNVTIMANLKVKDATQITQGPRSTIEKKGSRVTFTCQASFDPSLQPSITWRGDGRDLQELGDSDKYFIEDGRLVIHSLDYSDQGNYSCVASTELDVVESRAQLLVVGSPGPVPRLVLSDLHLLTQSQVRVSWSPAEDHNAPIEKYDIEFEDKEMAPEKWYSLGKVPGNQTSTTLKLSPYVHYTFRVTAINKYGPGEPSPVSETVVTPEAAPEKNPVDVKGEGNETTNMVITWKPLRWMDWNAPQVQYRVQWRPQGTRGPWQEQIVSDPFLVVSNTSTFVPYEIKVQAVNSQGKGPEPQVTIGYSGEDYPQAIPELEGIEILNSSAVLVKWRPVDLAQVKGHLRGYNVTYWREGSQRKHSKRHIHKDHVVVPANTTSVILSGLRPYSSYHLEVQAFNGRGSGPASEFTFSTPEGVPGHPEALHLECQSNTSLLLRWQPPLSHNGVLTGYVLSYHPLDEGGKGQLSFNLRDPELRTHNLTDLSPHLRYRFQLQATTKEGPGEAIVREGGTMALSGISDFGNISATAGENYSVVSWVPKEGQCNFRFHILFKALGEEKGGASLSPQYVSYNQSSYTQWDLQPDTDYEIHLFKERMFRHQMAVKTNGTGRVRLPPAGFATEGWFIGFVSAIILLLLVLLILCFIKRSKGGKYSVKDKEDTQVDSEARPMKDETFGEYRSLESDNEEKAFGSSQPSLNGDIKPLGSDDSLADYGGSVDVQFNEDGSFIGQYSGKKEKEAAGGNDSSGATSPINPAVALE

The test has as its target T1, human L1CAM (L1 cell adhesion molecule), endogenously expressed on the surface of HeLa cells (human, UniProt P32004 20-1257).
T1 construct: whole, on cells; also called CD171
As to the kind of experiment: flow cytometry on HeLa cells (endogenous human L1CAM). On the procedure:
The experimental principle is as follows: HeLa cells express high levels of L1CAM protein on their surface. After incubating humanized L1CAM antibodies with the cells, the binding ability of the antibodies to L1CAM on the surface of HeLa cells can be determined by flow cytometry. The experimental method is descripted as following: Humanized L1CAM antibodies (Human IgG1-Kappa) are diluted in complete medium in a four-fold serial dilution, with seven concentration gradient points. HeLa cells are cultured in DMEM complete medium (Corning, 10-013-CVR) containing 10% FBS (Gibco, 10099-141) and 100 U/mL penicillin mixture (Thermofisher, 15140122). When the cell coverage in the culture container reaches 80-90%, TrypLE (Thermofisher, 12604-013) is used to digest the HeLa cells from the culture container, and they are seeded in a 96-well plate (AXYGEN, P-96-450V-C) at a density of 2.2×10⁶ cells/ml, with 100,000 cells (45 μL complete medium) per well. Then, 5 μL of the antibody dilution is added to each well, gently mixed, and the 96-well plate is incubated at 4° C. for 1 hour. Then, 150 μL of PBS solution containing 2% FBS (Corning, 21-040-CVC) is added to each well, centrifuged at 1400 rpm for 4 minutes, the supernatant is removed, and the wells are washed once more. Then, 50 μL of Alexa Flour 647-labeled goat anti-human fluorescent secondary antibody (Jacksonimmuno, 109-605-088) diluted 1:800 is added to each well, and the 96-well plate is incubated at 4° C. for 0.5 hours. The cells are washed twice with PBS solution containing 2% FBS, then resuspended in 120 μL of PBS, and the cell surface fluorescence signal is detected using a flow cytometer (BD FACS Celesta), obtaining the median fluorescence intensity (MFI). A dose-response curve is generated, and the half-maximal effective concentration (EC50) is calculated using non-linear regression with GraphPad software.
Regarding B1, the EC50 came out at 2.33 nM.
In turn, B2 returned a concentration for a half-maximal effect (EC50) of 0.838 nM.
B3: the midpoint of the response, the EC50, lay at 7.82 nM.
In the case of B4 it was 0.646 nM; in that of B5, 0.562 nM; in that of B6, 0.738 nM.
For the molecule B7, the concentration for a half-maximal effect (EC50) was 24.7 nM.
In the case of B8, the EC50 was determined as 2.99 nM.
With B9, the response was half-maximal at 0.853 nM (EC50).
The molecule B10 had a 50% effective concentration (EC50) of 1.05 nM.
B11 gave a concentration giving a half-maximal response (EC50) of 1.48 nM.
On to B12, for which the midpoint of the response, the EC50, lay at 1.96 nM.
In turn, B13 gave an EC50 of 2.03 nM.
On to B14, for which the EC50 came out at 0.82 nM.
The molecule B15 returned an EC50 of 0.853 nM.
On to B16, for which a half-maximal response (EC50) required 0.676 nM.
The molecule B17 registered an EC50 of 2.18 nM.
Regarding B18, a half-maximal effect (EC50) was put at 9.27 nM.
In the case of B19 it was 2.13 nM; in that of B20, 1.03 nM.
Molecule B21 displayed an EC50 of 2.15 nM.
The value for B22 was 0.633 nM; that for B23 was 10.4 nM.
Turning to B24, the response was half-maximal at 0.377 nM (EC50).
The molecule B25 had an EC50 of 1.06 nM.
B26 displayed an EC50 of 0.404 nM.
B27 had an EC50 of 0.852 nM.
Molecule B28 showed an EC50 of 0.996 nM.
Molecule B29 showed an EC50 of 24.3 nM.
In turn, B30 had an EC50 of 6.59 nM.
The molecule B31 had an EC50 of 6.84 nM.
For B32, the EC50 is 1.93 nM.
In the case of B33, the EC50 worked out at 5.56 nM.
As to B34, the EC50 came to 1.68 nM.
In the case of B35 it was 2.06 nM.
Consider B36, for which a half-maximal effect (EC50) was put at 5.32 nM.
